# Reference: paper doi:10.1101/302828 (bioRxiv, 2018)
# B1: recombinant murine chromogranin B (CHGB) (natural protein, mouse, UniProt P16014 21-677, looked up)
# chain: APVDNRDHNEEMVTRCIIEVLSNALSKSSVPTITPECRQVLKKSGKEVKGEEKGENQNSKFEVRLLRDPADASGTRWASSREDAGAPVEDSQGQTKVGNEKWTEGGGHSREGVDDQESLRPSNQQASKEAKIYHSEERVGKEREKEEGKIYPMGEHREDAGEEKKHIEDSGEKPNTFSNKRSEASAKKKDESVARADAHSMELEEKTHSREQSSQESGEETRRQEKPQELTDQDQSQEESQEGEEGEEGEEGEEGEEDSASEVTKRRPRHHHGRSGSNKSSYEGHPLSEERRPSPKESKEADVATVRLGEKRSHHLAHYRASEEEPEYGEESRSYRGLQYRGRGSEEDRAPRPRSEESQEREYKRNHPDSELESTANRHGEETEEERSYEGANGRQHRGRGREPGAHSALDTREEKRLLDEGHYPVRESPIDTAKRYPQSKWQEQEKNYLNYGEEGDQGRWWQQEEQLGPEESREEVRFPDRQYEPYPITEKRKRLGALFNPYFDPLQWKNSDFEKRGNPDDSFLEDEGEDRNGVTLTEKNSFPEYNYDWWERRPFSEDVNWGYEKRSFARAPQLDLKRQYDGVAELDQLLHYRKKADEFPDFYDSEEQMGPHQEANDEKARADQRVLTAEEKKELENLAAMDLELQKIAEKFSQRG
# Biological target: the molecule itself
# Experiment: SEC
protein,measurement,value
B1,stoichiometry N,2
